How the values were obtained:
Assay in all cases: cell-based or functional assay
[1] = molecular target: HIV-1 Env pseudovirus 191084 B7-19 (HIV-1)
[2] = molecular target: HIV-1 Env pseudovirus 211-9 (HIV-1)
[3] = molecular target: HIV-1 Env pseudovirus 231965.c01 (HIV-1)
[4] = molecular target: HIV-1 Env pseudovirus 3301.v1.c24 (HIV-1)
[5] = molecular target: HIV-1 Env pseudovirus 3365.v2.c2 (HIV-1)
[6] = molecular target: HIV-1 Env pseudovirus 6545.v4.c1 (HIV-1)
[7] = molecular target: HIV-1 Env pseudovirus 89-F1_2_25 (HIV-1)
[8] = molecular target: HIV-1 Env pseudovirus 9004SS_A3_4 (HIV-1)
[9] = molecular target: HIV-1 Env pseudovirus P0402_c2_11 (HIV-1)
[10] = molecular target: HIV-1 Env pseudovirus T257-31 (HIV-1)
[11] = molecular target: HIV-1 Env pseudovirus X1193_c1 (HIV-1)
[12] = molecular target: HIV-1 Env pseudovirus X1254_c3 (HIV-1)
[13] = molecular target: HIV-1 Env pseudovirus X1632_S2_B10 (HIV-1)
[14] = molecular target: HIV-1 Env pseudovirus X2088_c9 (HIV-1)
[15] = molecular target: HIV-1 Env of pseudovirus 1012_11_TC21_3257 (clade B (T/F)) (HIV-1)
[16] = molecular target: HIV-1 Env of pseudovirus 1394C9G1(Rev-) (clade C (T/F)) (HIV-1)
[17] = molecular target: HIV-1 Env of pseudovirus 6535.3 (clade B) (HIV-1)
[18] = molecular target: HIV-1 Env of pseudovirus CAP210.2.00.E8 (clade C) (HIV-1)
[19] = molecular target: HIV-1 Env of pseudovirus CNE20 (clade BC) (HIV-1)
[20] = molecular target: HIV-1 Env of pseudovirus Ce0393_C3 (clade C (T/F)) (HIV-1)
[21] = molecular target: HIV-1 Env of pseudovirus Ce0682_E4 (clade C (T/F)) (HIV-1)
[22] = molecular target: HIV-1 Env of pseudovirus HIV-0013095-2.11 (clade C) (HIV-1)
[23] = molecular target: HIV-1 Env of pseudovirus Q461.e2 (clade A) (HIV-1)
[24] = molecular target: HIV-1 Env of pseudovirus Q842.d12 (clade A) (HIV-1)
[25] = molecular target: HIV-1 Env of pseudovirus QH0692.42 (clade B) (HIV-1)
[26] = molecular target: HIV-1 Env of pseudovirus REJO4541.67 (clade B) (HIV-1)
[27] = molecular target: HIV-1 Env of pseudovirus TRJO4551.58 (clade B) (HIV-1)
[28] = molecular target: HIV-1 Env of pseudovirus ZM197M.PB7 (clade C) (HIV-1)
[29] = molecular target: HIV-1 Env of pseudovirus ZM249M.PL1 (clade C) (HIV-1)
[30] = molecular target: MuLV envelope (negative control pseudovirus) (MuLV)
[31] = molecular target: HIV-1 Env of pseudovirus BJOX009000.02.4 (clade CRF01_AE) (HIV-1)
[32] = molecular target: HIV-1 Env of pseudovirus R3265.c06 (clade CRF01_AE) (HIV-1)

Substance: N49P9 (antibody)
- IC50 [1]: 0.042 µg/mL
- IC80 [1]: 0.129 µg/mL
- MPI [1]: 100
- IC50 [2]: 0.136 µg/mL
- IC80 [2]: 0.485 µg/mL
- MPI [2]: 100
- IC50 [3]: 0.253 µg/mL
- IC80 [3]: 1.16 µg/mL
- MPI [3]: 100
- IC50 [4]: 0.072 µg/mL
- MPI [4]: 100
- IC50 [5]: 0.059 µg/mL
- IC80 [5]: 0.198 µg/mL
- MPI [5]: 100
- IC50 [6]: > 50 µg/mL
- IC80 [6]: > 50 µg/mL
- MPI [6]: 20
- IC50 [7]: > 50 µg/mL
- IC80 [7]: > 50 µg/mL
- MPI [7]: 23
- IC50 [8]: 0.175 µg/mL
- IC80 [8]: 0.751 µg/mL
- MPI [8]: 100
- IC50 [9]: 0.028 µg/mL
- IC80 [9]: 0.085 µg/mL
- MPI [9]: 100
- IC50 [10]: 0.216 µg/mL
- IC80 [10]: 0.821 µg/mL
- MPI [10]: 100
- IC50 [11]: 0.025 µg/mL
- IC80 [11]: 0.081 µg/mL
- MPI [11]: 100
- IC50 [12]: 0.04 µg/mL
- IC80 [12]: 0.104 µg/mL
- MPI [12]: 100
- IC50 [13]: 46.7 µg/mL
- IC80 [13]: > 50 µg/mL
- MPI [13]: 51
- IC50 [14]: 0.07 µg/mL
- IC80 [14]: 0.252 µg/mL
- MPI [14]: 100

Substance: N49P9.1 (antibody)
- IC50 [1]: 0.097 µg/mL
- IC80 [1]: 0.259 µg/mL
- MPI [1]: 100
- IC50 [2]: 0.17 µg/mL
- IC80 [2]: 0.579 µg/mL
- MPI [2]: 100
- IC50 [3]: 0.474 µg/mL
- IC80 [3]: 2.24 µg/mL
- MPI [3]: 100
- IC50 [4]: 0.059 µg/mL
- IC80 [4]: 0.178 µg/mL
- MPI [4]: 100
- IC50 [5]: 0.055 µg/mL
- IC80 [5]: 0.725 µg/mL
- MPI [5]: 100
- IC50 [6]: > 50 µg/mL
- IC80 [6]: > 50 µg/mL
- MPI [6]: 6
- IC50 [7]: > 50 µg/mL
- IC80 [7]: > 50 µg/mL
- MPI [7]: 23
- IC50 [8]: 0.323 µg/mL
- IC80 [8]: 1.13 µg/mL
- MPI [8]: 100
- IC50 [9]: 0.06 µg/mL
- IC80 [9]: 0.163 µg/mL
- MPI [9]: 100
- IC50 [10]: 0.508 µg/mL
- IC80 [10]: 1.82 µg/mL
- MPI [10]: 100
- IC50 [11]: 0.042 µg/mL
- IC80 [11]: 0.15 µg/mL
- MPI [11]: 100
- IC50 [12]: 0.101 µg/mL
- IC80 [12]: 0.278 µg/mL
- MPI [12]: 100
- IC50 [13]: > 50 µg/mL
- IC80 [13]: > 50 µg/mL
- MPI [13]: 10
- IC50 [14]: 0.091 µg/mL
- IC80 [14]: 0.392 µg/mL
- MPI [14]: 100

Substance: N49P11 (antibody)
- IC50 [15]: 10.6 µg/mL
- IC80 [15]: 29.3 µg/mL
- MPI [15]: 100
- IC50 [16]: 6.13 µg/mL
- IC80 [16]: 22.3 µg/mL
- MPI [16]: 100
- IC50 [17]: 8.22 µg/mL
- IC80 [17]: 17.2 µg/mL
- MPI [17]: 100
- IC50 [18]: 5.12 µg/mL
- IC80 [18]: 19.4 µg/mL
- MPI [18]: 100
- IC50 [19]: 5.19 µg/mL
- IC80 [19]: 22.6 µg/mL
- MPI [19]: 100
- IC50 [20]: 1.51 µg/mL
- IC80 [20]: 9.71 µg/mL
- MPI [20]: 100
- IC50 [21]: 0.091 µg/mL
- IC80 [21]: 0.387 µg/mL
- MPI [21]: 100
- IC50 [22]: 5.85 µg/mL
- IC80 [22]: 17.8 µg/mL
- MPI [22]: 100
- IC50 [23]: 0.363 µg/mL
- IC80 [23]: 2.15 µg/mL
- MPI [23]: 100
- IC50 [24]: 0.027 µg/mL
- IC80 [24]: 0.103 µg/mL
- MPI [24]: 100
- IC50 [25]: 0.55 µg/mL
- IC80 [25]: 2.65 µg/mL
- MPI [25]: 100
- IC50 [26]: 10.8 µg/mL
- IC80 [26]: 27.1 µg/mL
- MPI [26]: 100
- IC50 [27]: 0.183 µg/mL
- IC80 [27]: 0.656 µg/mL
- MPI [27]: 100
- IC50 [28]: 0.303 µg/mL
- IC80 [28]: 1.59 µg/mL
- MPI [28]: 100
- IC50 [29]: 3.64 µg/mL
- IC80 [29]: 17.4 µg/mL
- MPI [29]: 100

Substance: N49P18.1 (antibody)
- IC50 [15]: 16.1 µg/mL
- IC80 [15]: > 50 µg/mL
- MPI [15]: 79
- IC50 [16]: > 50 µg/mL
- IC80 [16]: > 50 µg/mL
- MPI [16]: 17
- IC50 [17]: 2.06 µg/mL
- IC80 [17]: 11.4 µg/mL
- MPI [17]: 100
- IC50 [18]: > 50 µg/mL
- IC80 [18]: > 50 µg/mL
- MPI [18]: 11
- IC50 [19]: 1.33 µg/mL
- IC80 [19]: 6.36 µg/mL
- MPI [19]: 100
- IC50 [20]: 10.3 µg/mL
- IC80 [20]: 24.8 µg/mL
- MPI [20]: 92
- IC50 [21]: 3.95 µg/mL
- IC80 [21]: 21.1 µg/mL
- MPI [21]: 96
- IC50 [22]: > 50 µg/mL
- IC80 [22]: > 50 µg/mL
- MPI [22]: 48
- IC50 [23]: 24.7 µg/mL
- IC80 [23]: > 50 µg/mL
- MPI [23]: 68
- IC50 [24]: 3.04 µg/mL
- IC80 [24]: 8.13 µg/mL
- MPI [24]: 100
- IC50 [25]: > 50 µg/mL
- IC80 [25]: > 50 µg/mL
- MPI [25]: 43
- IC50 [26]: 4.08 µg/mL
- IC80 [26]: 30.1 µg/mL
- MPI [26]: 89
- IC50 [27]: 4.44 µg/mL
- IC80 [27]: 14.7 µg/mL
- MPI [27]: 99
- IC50 [28]: 12.5 µg/mL
- IC80 [28]: 49.8 µg/mL
- MPI [28]: 84
- IC50 [29]: 4.16 µg/mL
- IC80 [29]: 19.8 µg/mL
- MPI [29]: 98
- IC50 [30]: > 50 µg/mL
- IC80 [30]: > 50 µg/mL
- MPI [30]: 0

Substance: N49P19 (antibody)
- IC50 [1]: 0.357 µg/mL
- IC80 [1]: 1.34 µg/mL
- MPI [1]: 100
- IC50 [2]: 3.23 µg/mL
- IC80 [2]: 19 µg/mL
- MPI [2]: 93
- IC50 [3]: > 50 µg/mL
- IC80 [3]: > 50 µg/mL
- MPI [3]: 22
- IC50 [4]: 0.302 µg/mL
- IC80 [4]: 1.42 µg/mL
- MPI [4]: 98
- IC50 [5]: 0.579 µg/mL
- IC80 [5]: 2.09 µg/mL
- MPI [5]: 99
- IC50 [6]: > 50 µg/mL
- IC80 [6]: > 50 µg/mL
- MPI [6]: 2
- IC50 [7]: > 50 µg/mL
- IC80 [7]: > 50 µg/mL
- MPI [7]: 7
- IC50 [8]: 0.661 µg/mL
- IC80 [8]: 3.09 µg/mL
- MPI [8]: 100
- IC50 [9]: 0.448 µg/mL
- IC80 [9]: 2.63 µg/mL
- MPI [9]: 100
- IC50 [10]: 0.661 µg/mL
- IC80 [10]: 3 µg/mL
- MPI [10]: 100
- IC50 [11]: 0.54 µg/mL
- IC80 [11]: 3.15 µg/mL
- MPI [11]: 99
- IC50 [12]: > 50 µg/mL
- IC80 [12]: > 50 µg/mL
- MPI [12]: 48
- IC50 [13]: > 50 µg/mL
- IC80 [13]: > 50 µg/mL
- MPI [13]: 14
- IC50 [14]: 1.4 µg/mL
- IC80 [14]: 3.76 µg/mL
- MPI [14]: 99

Substance: PG9 (antibody)
- IC50, titer in TZM.bl cells [31]: 1.73 µg/mL
- IC80, titer in TZM.bl cells [31]: 8.21 µg/mL
- IC50, titer in TZM.bl cells [32]: 0.163 µg/mL
- IC80, titer in TZM.bl cells [32]: 0.535 µg/mL

Substance: PG16 (antibody)
- IC50, titer in TZM.bl cells [31]: 1.19 µg/mL
- IC80, titer in TZM.bl cells [31]: 22.1 µg/mL
- IC50, titer in TZM.bl cells [32]: 0.016 µg/mL
- IC80, titer in TZM.bl cells [32]: 0.146 µg/mL

From patent publication US20230002480A1
